Measured values from paper PMC9768917.

Columns and labels:
[1] = target: HALO-FhM28B (E413M) (Fasciola hepatica); experiment: SEC; final purification step on a Superose 6 column, 20 mM MOPS, 150 mM NaCl, pH 7.4; elution peak compared with the expected dimeric mass
[2] = target: HALO-FhM28B (Fasciola hepatica M28B metalloprotease, wild type, with N-terminal His-Strep-HALO tag) (Fasciola hepatica); experiment: as above

Substance	stoichiometry N [1]	stoichiometry N [2]
HALO-FhM28B (E413M) (enzyme)	2	–
HALO-FhM28B (Fasciola hepatica M28B metalloprotease, wild type, with N-terminal His-Strep-HALO tag) (enzyme)	–	2
